Numbering of substitutions follows the chain as printed. Names and notes keep the numbering of the source.
Tests used:
Test in all cases: purified protein, by the assay type
[1] = substrate: NC(=O)C1=CN([C@@H]2O[C@H](COP(=O)(O)OP(=O)(O)OC[C@H]3O[C@@H](n4cnc5c(N)ncnc54)[C@H](O)[C@@H]3O)[C@@H](O)[C@H]2O)C=CC1; type: biochemical, Bacillus stearothermophilus; conditions: other: WT; in the presence of 0.5 mM pyruvate; pH 6.0
Method: (§1) Steady-state reaction rates were determined by following the change in A340 due to the consumption of NADH. […] The buffer for all experiments was 100rmM triethanolamine-HC1/NaOH,pH 6.

[2] = substrate: CC(=O)C(=O)O; type: biochemical, Bacillus stearothermophilus; conditions: other: WT, No FBP, pH 6
Method: as §1

[3] = substrate: NC(=O)C1=CN([C@@H]2O[C@H](COP(=O)(O)OP(=O)(O)OC[C@H]3O[C@@H](n4cnc5c(N)ncnc54)[C@H](O)[C@@H]3O)[C@@H](O)[C@H]2O)C=CC1; type: biochemical; conditions: in the presence of 0.5 mM pyruvate, pH 6.0
Method: as §1

[4] = substrate: CC(=O)C(=O)O; type: biochemical; conditions: other: MVS, No FBP, pH 6
Method: as §1

[5] = substrate: NC(=O)C1=CN([C@@H]2O[C@H](COP(=O)(O)OP(=O)(O)OC[C@H]3O[C@@H](n4cnc5c(N)ncnc54)[C@H](O)[C@@H]3O)[C@@H](O)[C@H]2O)C=CC1; conditions: other: GG; in the presence of 0.5 mM pyruvate; pH 6.0
Method: as §1

B1: Bacillus stearothermophilus NAD-dependent L-lactate dehydrogenase, wild type (WT) (Geobacillus stearothermophilus) (protein)
chain: MKNNGGARVVVIGAGFVGASYVFALMNQGIADEIVLIDANESKAIGDAMDFNHGKVFAPKPVDIWHGDYDDCRDADLVVICAGANQKPGETRLDLVDKNIAIFRSIVESVMASGFQGLFLVATNPVDILTYATWKFSGLPHERVIGSGTILDTARFRFLLGEYFSVAPQNVHAYIIGEHGDTELPVWSQAYIGVMPIRKLVESKGEEAQKDLERIFVNVRDAAYQIIEKKGATYYGIAMGLARVTRAILHNENAILTVSAYLDGLYGERDVYIGVPAVINRNGIREVIEIELNDDEKNRFHHSAATLKSVLARAFTR
notes: made in house; host or cells: E. coli
With B1 the Km [1] was 18 µM, the Km [2] was 3000 µM and the kcat/Km [2] was 83000 M⁻¹ s⁻¹.

B2: Bacillus stearothermophilus L-lactate dehydrogenase variant MVS (102-5 QKP→MVS) (Geobacillus stearothermophilus; K87V/P88S/Q86M) (protein)
chain: B1 chain with Q86M, K87V, P88S
notes: made in house; host or cells: E. coli TG2, vector pKK223-3
B2 gave a Km ([3]; other: MVS) of 14.5 µM, a Km [4] of 15000 µM and a kcat [4] of 61 s⁻¹. It also gave a kcat/Km [4] of 4100 M⁻¹ s⁻¹.

B3: Bacillus stearothermophilus L-lactate dehydrogenase variant GG (235-6 AA→GG) (Geobacillus stearothermophilus; A222G/A223G) (protein)
chain: B1 chain with A222G, A223G
B3 gave a Km [5] of 18 µM.

B4: Bacillus stearothermophilus L-lactate dehydrogenase variant MVS/GG (102-5 QKP→MVS and 235-6 AA→GG) (Geobacillus stearothermophilus; A222G/A223G/K87V/P88S/Q86M) (protein)
chain: B1 chain with Q86M, K87V, P88S, A222G, A223G
notes: as for B2
Work on B4 yielded a Km ([3]; other: MVS/GG) of 14.5 µM.

Source: patent US5354676A, “Recombinant modified thermostable NAD-dependent dehydrogenases and process for their production” (The University of Bristol, priority 1989, dated 1994)
